Results published in article PMC3912074 (FEBS letters, 2013).

How the values were obtained:
BVU2420 = molecular target: T1, BVU2420 (Phocaeicola vulgatus, UniProt A6L315); experiment: DTNB-coupled thioesterase assay, […] nm; format: biochemical; conditions: pH 7.5, 25 °C, 50 mM HEPES, 0.15 M KCl, 1 mM DTNB
T1 sequence (A6L315 1-135): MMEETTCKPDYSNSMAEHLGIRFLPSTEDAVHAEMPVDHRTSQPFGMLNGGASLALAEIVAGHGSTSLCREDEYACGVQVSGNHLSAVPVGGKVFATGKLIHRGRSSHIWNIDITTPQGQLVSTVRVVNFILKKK

PG1653 = molecular target: T2, PG1653 (Porphyromonas gingivalis, UniProt Q7MU91); experiment: DTNB-coupled thioesterase assay, […] nm; format: biochemical; conditions: pH 7.5, 25 °C, 50 mM HEPES, 0.15 M KCl, 1 mM DTNB
T2 sequence (Q7MU91 1-407): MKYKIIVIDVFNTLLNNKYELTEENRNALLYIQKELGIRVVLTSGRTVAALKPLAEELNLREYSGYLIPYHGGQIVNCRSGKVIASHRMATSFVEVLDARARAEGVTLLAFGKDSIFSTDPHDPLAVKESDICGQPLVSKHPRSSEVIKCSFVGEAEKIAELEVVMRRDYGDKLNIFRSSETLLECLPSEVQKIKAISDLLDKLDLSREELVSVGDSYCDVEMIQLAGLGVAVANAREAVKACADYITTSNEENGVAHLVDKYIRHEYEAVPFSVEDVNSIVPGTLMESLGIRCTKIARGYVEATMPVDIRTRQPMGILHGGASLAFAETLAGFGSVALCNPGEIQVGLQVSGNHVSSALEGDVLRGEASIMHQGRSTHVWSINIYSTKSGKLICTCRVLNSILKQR

BF1314 = molecular target: T3, BF1314 (Bacteroides fragilis, UniProt Q5LFS7); experiment: DTNB-coupled thioesterase assay, […] nm; format: biochemical; conditions: pH 7.5, 25 °C, 50 mM HEPES, 0.15 M KCl, 1 mM DTNB
T3 sequence (Q5LFS7 1-410): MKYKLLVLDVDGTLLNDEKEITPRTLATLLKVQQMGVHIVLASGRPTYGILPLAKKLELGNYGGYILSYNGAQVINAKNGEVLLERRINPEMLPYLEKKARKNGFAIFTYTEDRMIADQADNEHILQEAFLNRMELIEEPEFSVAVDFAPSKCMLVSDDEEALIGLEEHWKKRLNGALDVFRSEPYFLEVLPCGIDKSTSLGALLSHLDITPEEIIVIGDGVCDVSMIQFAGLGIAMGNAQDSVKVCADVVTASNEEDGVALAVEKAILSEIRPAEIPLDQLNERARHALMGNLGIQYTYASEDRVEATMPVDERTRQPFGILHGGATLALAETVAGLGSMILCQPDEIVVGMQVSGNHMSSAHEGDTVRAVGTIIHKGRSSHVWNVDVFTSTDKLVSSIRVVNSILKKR

purified protein [1] = substrate: CC(C)(COP(=O)(O)OP(=O)(O)OC[C@H]1O[C@@H](n2cnc3c(N)ncnc32)[C@H](O)[C@@H]1OP(=O)(O)O)[C@@H](O)C(=O)NCCC(=O)NCCSC(=O)Cc1cccc(O)c1; experiment: purified protein; format: biochemical, Porphyromonas gingivalis; conditions: pH 7.5, 25 °C, 50 mM HEPES, 0.15 M KCl, 1 mM DTNB
purified protein [2] = substrate: CC(C)(COP(=O)(O)OP(=O)(O)OC[C@H]1O[C@@H](n2cnc3c(N)ncnc32)[C@H](O)[C@@H]1OP(=O)(O)O)[C@@H](O)C(=O)NCCC(=O)NCCSC(=O)c1ccc(O)cc1; experiment: purified protein; format: biochemical, Porphyromonas gingivalis; conditions: pH 7.5, 25 °C, 50 mM HEPES, 0.15 M KCl, 1 mM DTNB
purified protein [3] = substrate: CC(C)(COP(=O)(O)OP(=O)(O)OC[C@H]1O[C@@H](n2cnc3c(N)ncnc32)[C@H](O)[C@@H]1OP(=O)(O)O)[C@@H](O)C(=O)NCCC(=O)NCCSC(=O)c1cc(O)c2ccccc2c1O; experiment: purified protein; format: biochemical, Porphyromonas gingivalis; conditions: pH 7.5, 25 °C, 50 mM HEPES, 0.15 M KCl, 1 mM DTNB
purified protein [4] = substrate: CC(C)(COP(=O)(O)OP(=O)(O)OC[C@H]1O[C@@H](n2cnc3c(N)ncnc32)[C@H](O)[C@@H]1OP(=O)(O)O)[C@@H](O)C(=O)NCCC(=O)NCCSC(=O)c1ccccc1; experiment: purified protein; format: biochemical, Porphyromonas gingivalis; conditions: pH 7.5, 25 °C, 50 mM HEPES, 0.15 M KCl, 1 mM DTNB
purified protein [5] = substrate: CC(=O)OP(=O)(O)O; experiment: purified protein; conditions: pH 7.5, 25 °C, 1 mM MgCl2 (table; methods say 2 mM)
purified protein [6] = substrate: O=P(O)(O)NP(=O)(O)O; experiment: purified protein; conditions: pH 7.5, 25 °C, 1 mM MgCl2 (table; methods say 2 mM)
purified protein [7] = substrate: NC(=O)OP(=O)(O)O; experiment: purified protein; conditions: pH 7.5, 25 °C, 1 mM MgCl2 (table; methods say 2 mM)
purified protein [8] = substrate: O=P(O)(O)OC[C@H](O)CO; experiment: purified protein; conditions: pH 7.5, 25 °C, 1 mM MgCl2 (table; methods say 2 mM)
purified protein [9] = substrate: CC(C)(COP(=O)(O)OP(=O)(O)OC[C@H]1O[C@@H](n2cnc3c(N)ncnc32)[C@H](O)[C@@H]1OP(=O)(O)O)[C@@H](O)C(=O)NCCC(=O)NCCSC(=O)Cc1cccc(O)c1; experiment: purified protein; format: biochemical, Bacteroides fragilis; conditions: pH 7.5, 25 °C, 50 mM HEPES, 0.15 M KCl, 1 mM DTNB
purified protein [10] = substrate: CC(C)(COP(=O)(O)OP(=O)(O)OC[C@H]1O[C@@H](n2cnc3c(N)ncnc32)[C@H](O)[C@@H]1OP(=O)(O)O)[C@@H](O)C(=O)NCCC(=O)NCCSC(=O)c1ccc(O)cc1; experiment: purified protein; format: biochemical, Bacteroides fragilis; conditions: pH 7.5, 25 °C, 50 mM HEPES, 0.15 M KCl, 1 mM DTNB
purified protein [11] = substrate: CC(C)(COP(=O)(O)OP(=O)(O)OC[C@H]1O[C@@H](n2cnc3c(N)ncnc32)[C@H](O)[C@@H]1OP(=O)(O)O)[C@@H](O)C(=O)NCCC(=O)NCCSC(=O)c1cc(O)c2ccccc2c1O; experiment: purified protein; format: biochemical, Bacteroides fragilis; conditions: pH 7.5, 25 °C, 50 mM HEPES, 0.15 M KCl, 1 mM DTNB
purified protein [12] = substrate: CC(C)(COP(=O)(O)OP(=O)(O)OC[C@H]1O[C@@H](n2cnc3c(N)ncnc32)[C@H](O)[C@@H]1OP(=O)(O)O)[C@@H](O)C(=O)NCCC(=O)NCCSC(=O)c1ccccc1; experiment: purified protein; format: biochemical, Bacteroides fragilis; conditions: pH 7.5, 25 °C, 50 mM HEPES, 0.15 M KCl, 1 mM DTNB
purified protein [13] = substrate: NC(=O)OP(=O)(O)O; experiment: purified protein; format: biochemical, Bacteroides fragilis; conditions: pH 7.5, 25 °C, 1 mM MgCl2 (table; methods say 2 mM)
purified protein [14] = substrate: CC(C)(COP(=O)(O)OP(=O)(O)OC[C@H]1O[C@@H](n2cnc3c(N)ncnc32)[C@H](O)[C@@H]1OP(=O)(O)O)[C@@H](O)C(=O)NCCC(=O)NCCSC(=O)Cc1cccc(O)c1; experiment: purified protein; format: biochemical, Phocaeicola vulgatus; conditions: pH 7.5, 25 °C, 50 mM HEPES, 0.15 M KCl, 1 mM DTNB
purified protein [15] = substrate: CC(C)(COP(=O)(O)OP(=O)(O)OC[C@H]1O[C@@H](n2cnc3c(N)ncnc32)[C@H](O)[C@@H]1OP(=O)(O)O)[C@@H](O)C(=O)NCCC(=O)NCCSC(=O)c1ccc(O)cc1; experiment: purified protein; format: biochemical, Phocaeicola vulgatus; conditions: pH 7.5, 25 °C, 50 mM HEPES, 0.15 M KCl, 1 mM DTNB
purified protein [16] = substrate: CC(C)(COP(=O)(O)OP(=O)(O)OC[C@H]1O[C@@H](n2cnc3c(N)ncnc32)[C@H](O)[C@@H]1OP(=O)(O)O)[C@@H](O)C(=O)NCCC(=O)NCCSC(=O)c1cc(O)c2ccccc2c1O; experiment: purified protein; format: biochemical, Phocaeicola vulgatus; conditions: pH 7.5, 25 °C, 50 mM HEPES, 0.15 M KCl, 1 mM DTNB
purified protein [17] = substrate: CC(C)(COP(=O)(O)OP(=O)(O)OC[C@H]1O[C@@H](n2cnc3c(N)ncnc32)[C@H](O)[C@@H]1OP(=O)(O)O)[C@@H](O)C(=O)NCCC(=O)NCCSC(=O)c1ccccc1; experiment: purified protein; format: biochemical, Phocaeicola vulgatus; conditions: pH 7.5, 25 °C, 50 mM HEPES, 0.15 M KCl, 1 mM DTNB

napthoyl-CoA showed a Km (BVU2420) of 180 µM, a Km (PG1653) of 170 µM and a Km (BF1314) of 230 µM.

B1: PG1653 (Porphyromonas gingivalis W83) (protein)
chain: T2 sequence (Q7MU91 1-407)
In the case of B1, the Km (purified protein [1]) is reported as “(1.7 ± 0.3) × 10^2 μM”, the kcat (purified protein [1]) is reported as 0.31 ± 0.02 s⁻¹ and the Km (purified protein [2]) is reported as “(8.0 ± 0.6) × 10^2 μM”. The kcat (purified protein [2]) was 4.6 ± 0.1 s⁻¹, the Km (purified protein [3]) was 4.0 ± 0.3 µM and the kcat (purified protein [3]) was 10 ± 1 s⁻¹. For the same molecule, the Km (purified protein [4]) was “(5.8 ± 0.5) × 10^1 μM” and the kcat (purified protein [4]) was 0.03 ± 0.001 s⁻¹.

B2: BF1314-HAD Domain (Bacteroides fragilis NCTC 9343) (protein)
chain: MKYKLLVLDVDGTLLNDEKEITPRTLATLLKVQQMGVHIVLASGRPTYGILPLAKKLELGNYGGYILSYNGAQVINAKNGEVLLERRINPEMLPYLEKKARKNGFAIFTYTEDRMIADQADNEHILQEAFLNRMELIEEPEFSVAVDFAPSKCMLVSDDEEALIGLEEHWKKRLNGALDVFRSEPYFLEVLPCGIDKSTSLGALLSHLDITPEEIIVIGDGVCDVSMIQFAGLGIAMGNAQDSVKVCADVVTASNEEDGVALAVEKAILSEIRPAEIPLDQLNERARHAL
B2 was tested, and the Km (purified protein [5]) was 870 ± 60 µM, the kcat (purified protein [5]) was 0.02 ± 0.00167 s⁻¹ and the kcat/Km (purified protein [5]) was 23 M⁻¹ s⁻¹. For the same molecule, the Km (purified protein [6]) was 7400 ± 500 µM, the kcat (purified protein [6]) was 0.383 ± 0.0167 s⁻¹ and the kcat/Km (purified protein [6]) was 51 M⁻¹ s⁻¹. It also gave a Km (purified protein [7]) of 970 ± 80 µM, a kcat (purified protein [7]) of 0.04167 ± 0.000333 s⁻¹ and a kcat/Km (purified protein [7]) of 42 M⁻¹ s⁻¹. For the same molecule, the Km (purified protein [8]) was 63 ± 2 µM, the kcat (purified protein [8]) was 0.011 ± 0.001 s⁻¹ and the kcat/Km (purified protein [8]) was 170 M⁻¹ s⁻¹.

B3: BF1314 (Bacteroides fragilis NCTC 9343) (protein)
chain: T3 sequence (Q5LFS7 1-410)
With B3 the Km (purified protein [9]) was “(4.6 ± 0.4) × 10^1 μM”, the kcat (purified protein [9]) was 0.19 ± 0.01 s⁻¹ and the Km (purified protein [10]) was “(2.3 ± 0.2) × 10^2 μM”. For the same molecule, the kcat (purified protein [10]) was 1.1 ± 0.1 s⁻¹, the Km (purified protein [11]) was 7.0 ± 0.5 µM and the kcat (purified protein [11]) was 12 ± 1 s⁻¹. The Km (purified protein [12]) was “(8.4 ± 0.8) × 10^1 μM”, the kcat (purified protein [12]) was 0.024 ± 0.002 s⁻¹ and the Km (purified protein [13]) was 440 ± 30 µM. It also gave a kcat (purified protein [13]) of 0.0217 ± 0.00167 s⁻¹ and a kcat/Km (purified protein [13]) of 54 M⁻¹ s⁻¹.

B4: BVU2420 (Phocaeicola vulgatus ATCC 8482) (protein)
chain: T1 sequence (A6L315 1-135)
For B4, the Km (purified protein [14]) was “(8.1 ± 0.6) × 10^2 μM”, the kcat (purified protein [14]) was 0.034 ± 0.001 s⁻¹ and the Km (purified protein [15]) was “(3.3 ± 0.2) × 10^1 μM”. The kcat (purified protein [15]) was 1.2 ± 0.1 s⁻¹, the Km (purified protein [16]) was “(1.5 ± 0.1) × 10^1 μM” and the kcat (purified protein [16]) was 13 ± 1 s⁻¹. For the same molecule, the Km (purified protein [17]) was “(3.1 ± 0.4) × 10^1 μM” and the kcat (purified protein [17]) was 0.028 ± 0.001 s⁻¹.
